Experimental data: US12679878B2, “CRF2 receptor agonists and their use in therapy” (SANOFI, priority 2020, dated 2026)
Starred links: 1 amine or outer side, 2 acyl side, 3 side chain; linkers in the order of their positions; H or OH if unused. Non-standard residues stand in square brackets, D forms with d. Groups on a side chain read outwards from the residue. No end group written: not given here. *: point of attachment. C16 diacid = O=C(O)CCCCCCCCCCCCCCC(=O)*; γGlu = O=C(O)[C@H](CCC(=O)[*:2])N[*:1]; Aib = CC(C)(N)C(=O)O

T1: CRF1R receptor (anti-target) (UniProt P34998 24-415, limits assumed)
T1 sequence (looked up): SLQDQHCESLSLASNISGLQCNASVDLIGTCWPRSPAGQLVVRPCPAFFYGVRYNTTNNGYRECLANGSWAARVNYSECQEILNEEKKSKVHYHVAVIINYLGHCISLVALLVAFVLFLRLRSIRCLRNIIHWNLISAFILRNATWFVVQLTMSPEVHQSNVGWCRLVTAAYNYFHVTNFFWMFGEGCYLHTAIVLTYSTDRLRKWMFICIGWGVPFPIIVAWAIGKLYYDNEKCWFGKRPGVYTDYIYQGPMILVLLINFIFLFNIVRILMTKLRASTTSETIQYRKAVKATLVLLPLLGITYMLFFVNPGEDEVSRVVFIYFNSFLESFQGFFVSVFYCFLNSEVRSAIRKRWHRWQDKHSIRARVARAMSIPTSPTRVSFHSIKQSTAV

B1: peptide of SEQ ID NO: 197 (peptide)
peptide: IVLSLD[dV]PIKLK([γGlu-C16 diacid])QILLKQARQK[Aib]QRAQAEKNKRILERV-NH2
modifications: N-terminus assumed
SMILES: CC[C@H](C)[C@H](N)C(=O)N[C@H](C(=O)N[C@@H](CC(C)C)C(=O)N[C@@H](CO)C(=O)N[C@@H](CC(C)C)C(=O)N[C@@H](CC(=O)O)C(=O)N[C@@H](C(=O)N1CCC[C@H]1C(=O)N[C@H](C(=O)N[C@@H](CCCCN)C(=O)N[C@@H](CC(C)C)C(=O)N[C@@H](CCCCNC(=O)CC[C@H](NC(=O)CCCCCCCCCCCCCCC(=O)O)C(=O)O)C(=O)N[C@@H](CCC(N)=O)C(=O)N[C@H](C(=O)N[C@@H](CC(C)C)C(=O)N[C@@H](CC(C)C)C(=O)N[C@@H](CCCCN)C(=O)N[C@@H](CCC(N)=O)C(=O)N[C@@H](C)C(=O)N[C@@H](CCCNC(=N)N)C(=O)N[C@@H](CCC(N)=O)C(=O)N[C@@H](CCCCN)C(=O)NC(C)(C)C(=O)N[C@@H](CCC(N)=O)C(=O)N[C@@H](CCCNC(=N)N)C(=O)N[C@@H](C)C(=O)N[C@@H](CCC(N)=O)C(=O)N[C@@H](C)C(=O)N[C@@H](CCC(=O)O)C(=O)N[C@@H](CCCCN)C(=O)N[C@@H](CC(N)=O)C(=O)N[C@@H](CCCCN)C(=O)N[C@@H](CCCNC(=N)N)C(=O)N[C@H](C(=O)N[C@@H](CC(C)C)C(=O)N[C@@H](CCC(=O)O)C(=O)N[C@@H](CCCNC(=N)N)C(=O)N[C@H](C(N)=O)C(C)C)[C@@H](C)CC)[C@@H](C)CC)[C@@H](C)CC)C(C)C)C(C)C
B2: peptide of SEQ ID NO: 190 (peptide)
peptide: IVLSLD[dV]PIKLK([γGlu-C16 diacid])QILLKQERQKKQREQAEKNKQILEQV-NH2
modifications: N-terminus assumed
SMILES: CC[C@H](C)[C@H](N)C(=O)N[C@H](C(=O)N[C@@H](CC(C)C)C(=O)N[C@@H](CO)C(=O)N[C@@H](CC(C)C)C(=O)N[C@@H](CC(=O)O)C(=O)N[C@@H](C(=O)N1CCC[C@H]1C(=O)N[C@H](C(=O)N[C@@H](CCCCN)C(=O)N[C@@H](CC(C)C)C(=O)N[C@@H](CCCCNC(=O)CC[C@H](NC(=O)CCCCCCCCCCCCCCC(=O)O)C(=O)O)C(=O)N[C@@H](CCC(N)=O)C(=O)N[C@H](C(=O)N[C@@H](CC(C)C)C(=O)N[C@@H](CC(C)C)C(=O)N[C@@H](CCCCN)C(=O)N[C@@H](CCC(N)=O)C(=O)N[C@@H](CCC(=O)O)C(=O)N[C@@H](CCCNC(=N)N)C(=O)N[C@@H](CCC(N)=O)C(=O)N[C@@H](CCCCN)C(=O)N[C@@H](CCCCN)C(=O)N[C@@H](CCC(N)=O)C(=O)N[C@@H](CCCNC(=N)N)C(=O)N[C@@H](CCC(=O)O)C(=O)N[C@@H](CCC(N)=O)C(=O)N[C@@H](C)C(=O)N[C@@H](CCC(=O)O)C(=O)N[C@@H](CCCCN)C(=O)N[C@@H](CC(N)=O)C(=O)N[C@@H](CCCCN)C(=O)N[C@@H](CCC(N)=O)C(=O)N[C@H](C(=O)N[C@@H](CC(C)C)C(=O)N[C@@H](CCC(=O)O)C(=O)N[C@@H](CCC(N)=O)C(=O)N[C@H](C(N)=O)C(C)C)[C@@H](C)CC)[C@@H](C)CC)[C@@H](C)CC)C(C)C)C(C)C
B3: peptide of SEQ ID NO: 196 (peptide)
peptide: IVLSLD[dV]PIGLK([γGlu-C16 diacid])QILLKQERQKK[Aib]REQAEKNKRILERV-NH2
modifications: N-terminus assumed
SMILES: CC[C@H](C)[C@H](N)C(=O)N[C@H](C(=O)N[C@@H](CC(C)C)C(=O)N[C@@H](CO)C(=O)N[C@@H](CC(C)C)C(=O)N[C@@H](CC(=O)O)C(=O)N[C@@H](C(=O)N1CCC[C@H]1C(=O)N[C@H](C(=O)NCC(=O)N[C@@H](CC(C)C)C(=O)N[C@@H](CCCCNC(=O)CC[C@H](NC(=O)CCCCCCCCCCCCCCC(=O)O)C(=O)O)C(=O)N[C@@H](CCC(N)=O)C(=O)N[C@H](C(=O)N[C@@H](CC(C)C)C(=O)N[C@@H](CC(C)C)C(=O)N[C@@H](CCCCN)C(=O)N[C@@H](CCC(N)=O)C(=O)N[C@@H](CCC(=O)O)C(=O)N[C@@H](CCCNC(=N)N)C(=O)N[C@@H](CCC(N)=O)C(=O)N[C@@H](CCCCN)C(=O)N[C@@H](CCCCN)C(=O)NC(C)(C)C(=O)N[C@@H](CCCNC(=N)N)C(=O)N[C@@H](CCC(=O)O)C(=O)N[C@@H](CCC(N)=O)C(=O)N[C@@H](C)C(=O)N[C@@H](CCC(=O)O)C(=O)N[C@@H](CCCCN)C(=O)N[C@@H](CC(N)=O)C(=O)N[C@@H](CCCCN)C(=O)N[C@@H](CCCNC(=N)N)C(=O)N[C@H](C(=O)N[C@@H](CC(C)C)C(=O)N[C@@H](CCC(=O)O)C(=O)N[C@@H](CCCNC(=N)N)C(=O)N[C@H](C(N)=O)C(C)C)[C@@H](C)CC)[C@@H](C)CC)[C@@H](C)CC)C(C)C)C(C)C
B4: peptide of SEQ ID NO: 193 (peptide)
peptide: IVLSLD[dV]PIGLK([γGlu-C16 diacid])QILLKQERQKK[Aib]REQAETNKRILERV-NH2
modifications: N-terminus assumed
SMILES: CC[C@H](C)[C@H](N)C(=O)N[C@H](C(=O)N[C@@H](CC(C)C)C(=O)N[C@@H](CO)C(=O)N[C@@H](CC(C)C)C(=O)N[C@@H](CC(=O)O)C(=O)N[C@@H](C(=O)N1CCC[C@H]1C(=O)N[C@H](C(=O)NCC(=O)N[C@@H](CC(C)C)C(=O)N[C@@H](CCCCNC(=O)CC[C@H](NC(=O)CCCCCCCCCCCCCCC(=O)O)C(=O)O)C(=O)N[C@@H](CCC(N)=O)C(=O)N[C@H](C(=O)N[C@@H](CC(C)C)C(=O)N[C@@H](CC(C)C)C(=O)N[C@@H](CCCCN)C(=O)N[C@@H](CCC(N)=O)C(=O)N[C@@H](CCC(=O)O)C(=O)N[C@@H](CCCNC(=N)N)C(=O)N[C@@H](CCC(N)=O)C(=O)N[C@@H](CCCCN)C(=O)N[C@@H](CCCCN)C(=O)NC(C)(C)C(=O)N[C@@H](CCCNC(=N)N)C(=O)N[C@@H](CCC(=O)O)C(=O)N[C@@H](CCC(N)=O)C(=O)N[C@@H](C)C(=O)N[C@@H](CCC(=O)O)C(=O)N[C@H](C(=O)N[C@@H](CC(N)=O)C(=O)N[C@@H](CCCCN)C(=O)N[C@@H](CCCNC(=N)N)C(=O)N[C@H](C(=O)N[C@@H](CC(C)C)C(=O)N[C@@H](CCC(=O)O)C(=O)N[C@@H](CCCNC(=N)N)C(=O)N[C@H](C(N)=O)C(C)C)[C@@H](C)CC)[C@@H](C)O)[C@@H](C)CC)[C@@H](C)CC)C(C)C)C(C)C
B5: peptide of SEQ ID NO: 195 (peptide)
peptide: IVLSLD[dV]PIGLK([γGlu-C16 diacid])QILLKQERQKK[Aib]RQQAETNKRILERV-NH2
modifications: N-terminus assumed
SMILES: CC[C@H](C)[C@H](N)C(=O)N[C@H](C(=O)N[C@@H](CC(C)C)C(=O)N[C@@H](CO)C(=O)N[C@@H](CC(C)C)C(=O)N[C@@H](CC(=O)O)C(=O)N[C@@H](C(=O)N1CCC[C@H]1C(=O)N[C@H](C(=O)NCC(=O)N[C@@H](CC(C)C)C(=O)N[C@@H](CCCCNC(=O)CC[C@H](NC(=O)CCCCCCCCCCCCCCC(=O)O)C(=O)O)C(=O)N[C@@H](CCC(N)=O)C(=O)N[C@H](C(=O)N[C@@H](CC(C)C)C(=O)N[C@@H](CC(C)C)C(=O)N[C@@H](CCCCN)C(=O)N[C@@H](CCC(N)=O)C(=O)N[C@@H](CCC(=O)O)C(=O)N[C@@H](CCCNC(=N)N)C(=O)N[C@@H](CCC(N)=O)C(=O)N[C@@H](CCCCN)C(=O)N[C@@H](CCCCN)C(=O)NC(C)(C)C(=O)N[C@@H](CCCNC(=N)N)C(=O)N[C@@H](CCC(N)=O)C(=O)N[C@@H](CCC(N)=O)C(=O)N[C@@H](C)C(=O)N[C@@H](CCC(=O)O)C(=O)N[C@H](C(=O)N[C@@H](CC(N)=O)C(=O)N[C@@H](CCCCN)C(=O)N[C@@H](CCCNC(=N)N)C(=O)N[C@H](C(=O)N[C@@H](CC(C)C)C(=O)N[C@@H](CCC(=O)O)C(=O)N[C@@H](CCCNC(=N)N)C(=O)N[C@H](C(N)=O)C(C)C)[C@@H](C)CC)[C@@H](C)O)[C@@H](C)CC)[C@@H](C)CC)C(C)C)C(C)C
B6: peptide of SEQ ID NO: 189 (peptide)
peptide: IVLSLD[dV]PIKLK([γGlu-C16 diacid])QILLKQERQKK[Aib]RQKAEKNKQILAQV-NH2
modifications: N-terminus assumed
SMILES: CC[C@H](C)[C@H](N)C(=O)N[C@H](C(=O)N[C@@H](CC(C)C)C(=O)N[C@@H](CO)C(=O)N[C@@H](CC(C)C)C(=O)N[C@@H](CC(=O)O)C(=O)N[C@@H](C(=O)N1CCC[C@H]1C(=O)N[C@H](C(=O)N[C@@H](CCCCN)C(=O)N[C@@H](CC(C)C)C(=O)N[C@@H](CCCCNC(=O)CC[C@H](NC(=O)CCCCCCCCCCCCCCC(=O)O)C(=O)O)C(=O)N[C@@H](CCC(N)=O)C(=O)N[C@H](C(=O)N[C@@H](CC(C)C)C(=O)N[C@@H](CC(C)C)C(=O)N[C@@H](CCCCN)C(=O)N[C@@H](CCC(N)=O)C(=O)N[C@@H](CCC(=O)O)C(=O)N[C@@H](CCCNC(=N)N)C(=O)N[C@@H](CCC(N)=O)C(=O)N[C@@H](CCCCN)C(=O)N[C@@H](CCCCN)C(=O)NC(C)(C)C(=O)N[C@@H](CCCNC(=N)N)C(=O)N[C@@H](CCC(N)=O)C(=O)N[C@@H](CCCCN)C(=O)N[C@@H](C)C(=O)N[C@@H](CCC(=O)O)C(=O)N[C@@H](CCCCN)C(=O)N[C@@H](CC(N)=O)C(=O)N[C@@H](CCCCN)C(=O)N[C@@H](CCC(N)=O)C(=O)N[C@H](C(=O)N[C@@H](CC(C)C)C(=O)N[C@@H](C)C(=O)N[C@@H](CCC(N)=O)C(=O)N[C@H](C(N)=O)C(C)C)[C@@H](C)CC)[C@@H](C)CC)[C@@H](C)CC)C(C)C)C(C)C

These binders were tested against T1, CRF1R receptor (anti-target) (assay: cell-based or functional assay).

| Binder | CRF1/CRF2 ratio (of EC50) | CRF1 EC50 (cAMP, HTRF) |
| --- | --- | --- |
| B1 | > 500 | > 100 nM |
| B2 | > 500 | > 100 nM |
| B3 | > 500 | > 100 nM |
| B4 | > 500 | > 100 nM |
| B5 | > 500 | > 100 nM |
| B6 | > 500 | > 100 nM |
